One molecule from paper PMC3369541 (Methods in Molecular Biology (Clifton, N.j.), 2012) can be followed below.

The target in the experiment is T1, FUS1 peptide (wild-type PDZ protein-binding motif).
T1 peptide: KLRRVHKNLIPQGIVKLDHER
The experiment is described as follows: ProteinChip array with SELDI-TOF mass spectrometry.

B1: Apaf1 peptide (PDZ protein-binding motif) (peptide)
peptide: LGILYILQTLE
On to B1, for which the binding result was “binds”.
